Data reported in US20240067747A1 (SHANGHAI HUAOTA BIOPHARMACEUTICAL, published 2024).

T1: recombinant human CD73 protein (ACRO Biosystems, item No. CD3-H52H7) (human, UniProt P21589 27-547)
T1 construct: also called recombinant CD73 protein
T1 sequence (looked up): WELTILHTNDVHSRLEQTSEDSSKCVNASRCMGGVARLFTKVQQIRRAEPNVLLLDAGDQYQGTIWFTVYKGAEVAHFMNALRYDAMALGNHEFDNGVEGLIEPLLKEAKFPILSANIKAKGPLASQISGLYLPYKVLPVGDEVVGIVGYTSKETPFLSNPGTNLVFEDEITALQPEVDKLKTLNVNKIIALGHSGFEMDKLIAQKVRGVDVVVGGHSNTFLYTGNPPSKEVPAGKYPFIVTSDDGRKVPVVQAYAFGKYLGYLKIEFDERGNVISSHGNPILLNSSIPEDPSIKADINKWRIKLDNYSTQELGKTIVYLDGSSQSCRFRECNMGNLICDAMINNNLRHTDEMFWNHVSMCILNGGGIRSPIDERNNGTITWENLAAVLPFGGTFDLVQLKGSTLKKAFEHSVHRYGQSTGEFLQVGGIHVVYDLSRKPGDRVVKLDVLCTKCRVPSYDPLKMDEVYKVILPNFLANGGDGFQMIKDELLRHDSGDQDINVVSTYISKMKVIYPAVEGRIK

T2: Trypsin inhibitor type 1-S from Glycine max (Sigma, T-2327) (Glycine max, UniProt P01070 25-205)
T2 construct: Non-target molecule, amine-coupled to a CM5 chip
T2 sequence (looked up): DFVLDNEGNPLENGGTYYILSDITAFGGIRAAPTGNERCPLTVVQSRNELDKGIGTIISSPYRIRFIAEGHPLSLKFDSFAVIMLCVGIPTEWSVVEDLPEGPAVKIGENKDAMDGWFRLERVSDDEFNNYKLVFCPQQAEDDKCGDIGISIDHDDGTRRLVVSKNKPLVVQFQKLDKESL

T3: CD73 on the cell surface of Calu6 cells (UniProt P21589 27-549, limits assumed)
T3 sequence (looked up): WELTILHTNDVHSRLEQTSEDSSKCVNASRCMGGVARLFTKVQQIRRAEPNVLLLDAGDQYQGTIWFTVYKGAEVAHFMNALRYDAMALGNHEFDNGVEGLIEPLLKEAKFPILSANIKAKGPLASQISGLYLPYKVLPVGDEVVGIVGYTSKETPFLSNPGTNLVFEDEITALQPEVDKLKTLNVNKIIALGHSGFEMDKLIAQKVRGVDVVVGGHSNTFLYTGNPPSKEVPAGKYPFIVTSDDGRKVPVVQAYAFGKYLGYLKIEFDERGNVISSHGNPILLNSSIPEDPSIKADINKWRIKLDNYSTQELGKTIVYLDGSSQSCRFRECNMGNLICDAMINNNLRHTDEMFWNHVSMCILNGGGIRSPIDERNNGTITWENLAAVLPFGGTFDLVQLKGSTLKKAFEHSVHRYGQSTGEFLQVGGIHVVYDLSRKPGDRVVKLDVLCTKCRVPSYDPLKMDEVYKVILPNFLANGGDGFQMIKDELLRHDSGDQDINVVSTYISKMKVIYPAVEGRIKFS


What was measured:
[1] = target: T1, recombinant human CD73 protein (ACRO …); test: ELISA, plate coated with CD73 protein, anti-human-IgG-Fc-HRP
Protocol: The ELISA well plate was coated with 30 ul of 2 ug/ml CD73 protein (ACRO, #CD3-H52H7-100μg) solution and incubated overnight at 4° C. Then, the well plate was washed 3 times with PBST, blocked with 5% MILK/PBS at room temperature for 1 h, and then washed 3 times with PBST. […] The diluted antigen-binding protein solutions were then added to the ELISA well plate, 30 ul per well, and incubated at room temperature for 30 min. After the incubation, the well plate was washed 3 times. Anti-human-IgG-Fc-HRP was added and incubated at room temperature for 50 min. After the incubation, the well plate was washed 3 times. The TMB solution was added. The reaction was then terminated with 2M HCl and the OD450 reading was checked.

[2] = target: T2, Trypsin inhibitor type 1-S from Glycine …; test: SPR, Biacore 8K, trypsin inhibitor immobilized on CM5, antibody at 1000 nM; buffer alone 13.9 RU
Protocol: The non-specific adsorption effect of antigen-binding proteins and non-target molecules were determined by using the SPR method.
The series sensor chip CM5 (GE, #BR-1005-30) was equilibrated at room temperature for 20-30 min and then loaded into the Biacore 8K (GE) instrument. Lysozyme solution (Sigma, #L3790) from egg and trypsin inhibitor type 1-S (Sigma, #T-2327) from Glycine max were immobilized onto the CM5 chip using an amino coupling kit (GE, #BR-1000-50). The injection buffer was HBS-EP (1×) (GE, #BR-1006-69) and four equilibration cycles were set up. The polyclonal rabbit anti-lysozyme (ABcam, Ab391), anti-trypsin inhibitor antibodies (LifeSpan Biosciences, #LS-C76609), chimeric antibodies and humanized antibodies were diluted with equilibration buffer to 1000 nM, and the flow rate was set at 5 μL/min and injection channels 1, 2 and 3, Flow Cell 1 and 2 were selected. The association time was 10 min and the dissociation time was 10 min.
The PI of carboxymethyl dextran was 3.5, the PI of the trypsin inhibitor was 4.5, and the PI of lysozyme was 11.3. In the HBS-EP buffer solution with a pH of 7.4, carboxymethyl dextran and the trypsin inhibitor had strong negative charges, and lysozyme had strong positive charges.

[3] = target: T3, CD73 on the cell surface of Calu6 cells; test: cell-based or functional assay
[4] = target: T1, recombinant human CD73 protein (ACRO …); test: SPR, Biacore T200, antibody captured on protein A chip, human CD73 as analyte, 1:1 model
Protocol: In the tests, the assay buffer HBS-EP+ (pH 7.4) and the protein A chip (manufacturer: GE, item No.: 29-1275-56) were used.
The temperatures of a sample chamber and a flow path were set at 25° C., and the protein A chip respectively captured chimeric antibodies or humanized antibodies as ligands and immobilized at about 100 RU. […] After association for 120 s at a flow rate of 30 μL/min, dissociation was carried out for 600 s. Regeneration was then carried out for 60 s with 10 mM Glycine (pH 1.5) at a flow rate of 50 μL/min to implement multi-cycle kinetic detection. A 1:1 binding model was selected for fitting analysis in a Fit local mode to acquire the association rate constant (ka), dissociation rate constant (kd) and dissociation equilibrium rate constant (KD).

Binder	EC50 [1]	non-specific binding amount (RU) [2]	Endocytosis rate (%) [3]	Kd [4]	koff [4]	kon [4]
900567 (human-mouse chimeric anti-CD73 antigen-binding protein expressed from 124A9 variable regions) (antibody, V domains shown) VH: QVQLQQPGAELVKPGASVKLSCKASGYTFTSYWIHWVKQRPGQGLDWIGMIHPNSGSTYYNEKFKSKATLTVDKSSSTAYMQLSSLTSEDSAVYYCARYYGSDYEWYFDVWGTGTTVTVSS VL: DIVMTQSQKFMSTSVGDRVSITCKASQNVRTAVVWYQQNPGQSPKALIYLASNRHTGVPDRFTGSGSGTDFTLTISNVHSEDLADYFCLQHWNYPYTFGGGTKLEIK	0.282 µg/mL	12.8 RU	26.9%	652 pM	0.00049 s⁻¹	752000 M⁻¹ s⁻¹
900725 (humanized anti-CD73 antigen-binding protein) (antibody, V domains shown) VH: QVQLVQSGAEVKKPGASVKLSCKASGYTFTSYWIHWVRQAPGQGLEWIGMIHPNSGSTYYNEKFKGRATLTVDKSTSTAYMELSSLRSEDTAVYYCARYYGSDYEWYFDVWGQGTTVTVSS VL: DIQMTQSPSSMSASVGDRVTITCKASQNVRTAVVWYQQKPGKAPKALIYLASNRHTGVPDRFSGSGSGTDFTLTISSLQPEDFATYFCLQHWNYPYTFGQGTKLEIK	0.327 µg/mL	12.6 RU	37.5%	201 pM	0.000126 s⁻¹	626000 M⁻¹ s⁻¹
900726 (humanized anti-CD73 antigen-binding protein) (antibody, V domains shown) VH: QVQLVQSGAEVKKPGASVKLSCKASGYTFTSYWIHWVRQAPGQGLEWIGMIHPNSGSTYYNEKFKGRATLTVDKSTSTAYMELSSLRSEDTAVYYCARYYGSDYEWYFDVWGQGTTVTVSS VL: DIQMTQSPSSLSASVGDRVTITCKASQNVRTAVVWYQQKPGKAPKALIYLASNRHTGVPDRFSGSGSGTDFTLTISSLQPEDFATYYCLQHWNYPYTFGQGTKLEIK	0.361 µg/mL	15.4 RU		2490 pM	0.00124 s⁻¹	496000 M⁻¹ s⁻¹

Results, then the binder that gave them:

EC50 [1]	non-specific binding amount (RU) [2]	Endocytosis rate (%) [3]	Kd [4]	koff [4]	kon [4]	Binder
0.364 µg/mL	11.6 RU		789 pM	0.000494 s⁻¹	626000 M⁻¹ s⁻¹	900727 (humanized anti-CD73 antigen-binding protein) (antibody, V domains shown) VH: QVQLVQSGAEVKKPGASVKVSCKASGYTFTSYWIHWVRQAPGQGLEWIGMIHPNSGSTYYAQKFQGRVTITVDKSTSTAYMELSSLRSEDTAVYYCARYYGSDYEWYFDVWGQGTTVTVSS VL: DIQMTQSPSSMSASVGDRVTITCKASQNVRTAVVWYQQKPGKAPKALIYLASNRHTGVPDRFSGSGSGTDFTLTISSLQPEDFATYFCLQHWNYPYTFGQGTKLEIK
0.29 µg/mL	13.5 RU	33.9%	377 pM	0.000317 s⁻¹	841000 M⁻¹ s⁻¹	900728 (humanized anti-CD73 antigen-binding protein) (antibody, V domains shown) VH: QVQLVQSGAEVKKPGASVKVSCKASGYTFTSYWIHWVRQAPGQGLEWIGMIHPNSGSTYYNEKFQGRVTMTVDKSTSTAYMELSSLRSEDTAVYYCARYYGSDYEWYFDVWGQGTTVTVSS VL: DIQMTQSPSSLSASVGDRVTITCKASQNVRTAVVWYQQKPGKAPKALIYLASNRHTGVPDRFSGSGSGTDFTLTISSLQPEDFATYYCLQHWNYPYTFGQGTKLEIK
